We go through 3 molecules from patent US20020176866A1.

Non-standard residues stand in square brackets, D forms with d. No end group written: not given here.

Test [1] addresses rat MHC class II (I-A or I-E) on splenic adherent cells (antigen presenting cells) (rat). The test can be described thus: competition with 10 µM biotin-labeled MBP native peptide on rat splenic adherent cells, flow cytometry; competitor at 100 µM. (In flow cytometry, cells or beads pass a laser one at a time.)
The target is the same in test [2]. As to the kind of experiment: competition with 10 µM biotin-labeled MBP (87-99) on rat splenic adherent cells, flow cytometry; competitor at 200 µM.

D[dA]NPVVHAFANIVTPRT [a83, A89, A91 peptide analog of human myelin basic protein]: the percent inhibition of binding at 100 µM in test [1] stood at 25%.
Take VV[dH]FFANIVTPRT [h88/A91, peptide analog of MBP (87-99) with D-histidine at residue 88 and alanine at residue 91]: the percent inhibition of binding at 200 µM in test [2] came out at 67.6%.
As for VVHFFKNIVTPRT [MBP (87-99), human myelin basic protein residues 87-99], the percent inhibition of binding at 100 µM in test [1] was found to be 40%. Moreover, the percent inhibition of binding at 200 µM in test [2] amounted to 68.4%.
